Data from patent US20230263832A1, “TARGETED DRUG DELIVERY TO SITES OF INTRAVASCULAR OCCLUSION” (Children's Medical Center Corporation, priority 2020, published 2023).

Tested on: RBC aggregates in SCD mouse liver
Assay: TNFα-induced vaso-occlusion in SCD mouse liver (LaSC, 3 parameters)
Assay type: in vivo
Conditions: SS mice, TNFα 1 μg/mouse i.p. 1 h
Method: FIG. 12: Parameters of RBC aggregates were determined to quantitate vaso-occlusion in SCD mouse liver. SCD mice were injected with TNFα (1 μg/mouse; 1 h) to induce inflammatory vaso-occlusion, followed by CO2 euthanasia and PBS perfusion to flush unbound RBCs in the vasculature. The livers were harvested and fixed by PLP fixative, followed by cryosectioning and immunofluorescent staining with antibodies against Ter119 (for RBC marker), Endoglin (for sinusoidal vasculature), S100A8 (for neutrophils), and DAPI (for nuclei). Stained slides with fluorescent dye-labeled secondary antibodies were scanned on laser scan cytometry (LaSC), followed by quantitative imaging analysis (iCys software) to quantitate the # of RBC aggregates that are larger than 100 μm^2, total area of RBC aggregates, the # neutrophil-containing RBC aggregates by iCys software. Arrows indicate the neutrophil-containing RBC aggregate in liver sinusoid.
SCD SS and control AA mice were injected with or without TNFα (1 μg/mouse; 1 h) to induce inflammatory vaso-occlusion, followed by CO2 euthanasia and PBS perfusion to flush unbound RBCs in the vasculature. Immunofluorescent staining of liver cryosections was performed as described in FIG. 12 to produce LaSC images, which were subjected to quantitative imaging analysis of RBC aggregates for 3 parameters in SCD mouse livers (see FIG. 14).
From FIG. 13 LaSC scanning, cytometric events are defined by automatic image segmentation on specific channels by iCys software to quantitate # of RBC aggregate, total area of RBC aggregates, # of neutrophil-containing RBC aggregates by iCys software (Park et al. 2020). […]
(FIG. 15A) Representative images show the increased RBC aggregates upon TNFα injection in SCD mouse liver. (FIG. 15B) This was followed by quantitative imaging analysis (iCys software) to quantitate # of RBC aggregate, total area of RBC aggregates, # of neutrophil-containing RBC aggregates by iCys software. […]

Substance: TNFα
- increase of # of RBC aggregates: 51%
- increase of # of neutrophil-containing RBC aggregates: 182%
- increase of total area of RBC aggregates: 59%
